Article PMC4287557

Tests used:
[1] = biological target: JRFL SOSIP trimer (HIV-1 subtype B, truncated at residue 663), negatively selected (HIV-1 subtype B strain JRFL)
[2] = biological target: 16055 SOSIP trimer (HIV-1 subtype C, truncated at residue 663), negatively selected (HIV-1 subtype C strain 16055); experiment: negative-stain EM; negatively selected SOSIP trimers incubated with a ten molar excess of Fab or four-domain sCD4 at RT for 1 hour; 2% uranyl formate; 2D class averages (occupancy) and 3D reconstructions
[3] = biological target: JRFL SOSIP trimer (HIV-1 subtype B, truncated at residue 663), negatively selected (HIV-1 subtype B strain JRFL); experiment: as above

Chain of PGT151 Fab (VH): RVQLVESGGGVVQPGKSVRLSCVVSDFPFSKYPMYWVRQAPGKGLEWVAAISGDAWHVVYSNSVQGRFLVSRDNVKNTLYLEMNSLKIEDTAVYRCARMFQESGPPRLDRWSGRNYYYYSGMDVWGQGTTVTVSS
Chain of PGT151 Fab (VL): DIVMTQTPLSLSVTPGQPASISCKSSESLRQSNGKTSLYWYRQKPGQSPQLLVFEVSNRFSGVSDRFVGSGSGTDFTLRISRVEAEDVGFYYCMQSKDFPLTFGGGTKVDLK

Substance PGT151 Fab has an increase of the melting temperature (Tm) of the JRFL SOSIP-Fab complex over the trimer alone, DSF [1] of 2.1 °C, a percent of trimers with one Fab bound [2] of 34% and a percent of trimers with three Fabs bound [2] of 0%. It also gave a percent of trimers with two Fabs bound [2] of 20%, a percent of trimers with one Fab bound [3] of 28% and a percent of trimers with three Fabs bound [3] of 11%. It also gave a percent of trimers with two Fabs bound [3] of 36%.
